# Measured values taken from the supplement of paper PMC10899765.
# What was measured:
# Settings in all cases: 20 nM; 72 h
# MCF10A [1] = assay: percent viability (nuclei count relative to siNT); higher = more viable cells
# Method: (§1)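 After 72 h, cells were fixed and stained with Hoechst and anti-fibrillarin, and nucleoli per nucleus were counted with CellProfiler. Values are plate-adjusted percent effect for the one-nucleolus and 5+ nucleoli phenotypes, normalised to siNT (0%) and to the positive controls siNOL11 or siKIF11 (100%), as the mean of biological triplicates. Percent viability is the nuclei count relative to siNT.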
# MCF10A [2] = assay: 5+ nucleoli phenotype percent effect (relative to siNT 0% and siKIF11 100%); higher = more cells with five or more nucleoli
# Method: as §1
# MCF10A [3] = assay: one-nucleolus phenotype percent effect (relative to siNT 0% and siNOL11 100%); higher = more cells with one nucleolus (ribosome biogenesis inhibition)
# Method: as §1
sequence,measurement,setting,value
CACUCAGCCUUGAGGGCACUUUC [hsa-miR-512-5p],percent viability,MCF10A [1],43.4%
same,5+ nucleoli phenotype percent effect,MCF10A [2],-15.2%
same,one-nucleolus phenotype percent effect,MCF10A [3],16.2%
CACUGCAGGACUCAGCAG [hsa-miR-4418],percent viability,MCF10A [1],55.1%
same,5+ nucleoli phenotype percent effect,MCF10A [2],-22.7%
same,one-nucleolus phenotype percent effect,MCF10A [3],-4.26%
CACUGCAUUCCUGCUUGGCCCAG [hsa-miR-6807-3p],percent viability,MCF10A [1],48.2%
same,5+ nucleoli phenotype percent effect,MCF10A [2],6.87%
same,one-nucleolus phenotype percent effect,MCF10A [3],-9.99%
CACUGGCUCCUUUCUGGGUAGA [hsa-miR-892b],percent viability,MCF10A [1],25.4%
same,5+ nucleoli phenotype percent effect,MCF10A [2],-22.8%
same,one-nucleolus phenotype percent effect,MCF10A [3],27.6%
CACUGUAGGUGAUGGUGAGAGUGGGCA [hsa-miR-1183],percent viability,MCF10A [1],66.4%
same,5+ nucleoli phenotype percent effect,MCF10A [2],17.5%
same,one-nucleolus phenotype percent effect,MCF10A [3],0.199%
CACUGUGGGUACAUGCU [hsa-miR-4318],percent viability,MCF10A [1],35.1%
same,5+ nucleoli phenotype percent effect,MCF10A [2],-33%
same,one-nucleolus phenotype percent effect,MCF10A [3],65.2%
CACUGUGUCCUUUCUGCGUAG [hsa-miR-892a],percent viability,MCF10A [1],57.7%
same,5+ nucleoli phenotype percent effect,MCF10A [2],-27.3%
same,one-nucleolus phenotype percent effect,MCF10A [3],31.9%
CACUGUUUCACCACUGGCUCUU [hsa-miR-4676-3p],percent viability,MCF10A [1],49.2%
same,5+ nucleoli phenotype percent effect,MCF10A [2],18.4%
same,one-nucleolus phenotype percent effect,MCF10A [3],-8.83%
CACUGUUUCCUUUCUGAGUGGA [hsa-miR-892c-3p],percent viability,MCF10A [1],93.2%
same,5+ nucleoli phenotype percent effect,MCF10A [2],-29.1%
same,one-nucleolus phenotype percent effect,MCF10A [3],1.69%
CACUUAGCAGGUUGUAUUAUAU [hsa-miR-374c-3p],percent viability,MCF10A [1],50.7%
same,5+ nucleoli phenotype percent effect,MCF10A [2],0.0114%
same,one-nucleolus phenotype percent effect,MCF10A [3],0.51%
CAGAACAGGAGCAUAGAAAGGC [hsa-miR-4773],percent viability,MCF10A [1],43.7%
same,5+ nucleoli phenotype percent effect,MCF10A [2],22.9%
same,one-nucleolus phenotype percent effect,MCF10A [3],-20.2%
CAGAAGGGGAGUUGGGAGCAGA [hsa-miR-3154],percent viability,MCF10A [1],17.4%
same,5+ nucleoli phenotype percent effect,MCF10A [2],-26.4%
same,one-nucleolus phenotype percent effect,MCF10A [3],46.1%
CAGAGAAUUGUUUAAUC [hsa-miR-3123],percent viability,MCF10A [1],124%
same,5+ nucleoli phenotype percent effect,MCF10A [2],54.9%
same,one-nucleolus phenotype percent effect,MCF10A [3],-40.8%
CAGAGGGAAUACAGAGGGCAAU [hsa-miR-6873-5p],percent viability,MCF10A [1],36.7%
same,5+ nucleoli phenotype percent effect,MCF10A [2],7.98%
same,one-nucleolus phenotype percent effect,MCF10A [3],20%
CAGAGUGACAAGCUGGUUAAAG [hsa-miR-5586-3p],percent viability,MCF10A [1],98.4%
same,5+ nucleoli phenotype percent effect,MCF10A [2],27.8%
same,one-nucleolus phenotype percent effect,MCF10A [3],-14.6%
CAGAUCAUGGGACUGUCUCAG [hsa-miR-5694],percent viability,MCF10A [1],66.3%
same,5+ nucleoli phenotype percent effect,MCF10A [2],22.8%
same,one-nucleolus phenotype percent effect,MCF10A [3],-16.1%
CAGCACCCUGUGGCUCCCACAG [hsa-miR-6871-3p],percent viability,MCF10A [1],50.1%
same,5+ nucleoli phenotype percent effect,MCF10A [2],26.8%
same,one-nucleolus phenotype percent effect,MCF10A [3],-5.35%
CAGCAGCAAUUCAUGUUUUGAA [hsa-miR-424-5p],percent viability,MCF10A [1],77.3%
same,5+ nucleoli phenotype percent effect,MCF10A [2],-8.58%
same,one-nucleolus phenotype percent effect,MCF10A [3],24%
CAGCAGCACACUGUGGUUUGU [hsa-miR-497-5p],percent viability,MCF10A [1],15.2%
same,5+ nucleoli phenotype percent effect,MCF10A [2],-38.4%
same,one-nucleolus phenotype percent effect,MCF10A [3],50.2%
CAGCAGGAGGUGAGGGGAG [hsa-miR-6165],percent viability,MCF10A [1],101%
same,5+ nucleoli phenotype percent effect,MCF10A [2],36.7%
same,one-nucleolus phenotype percent effect,MCF10A [3],-18.4%
CAGCAGGGGAGAGAGAGGAGUC [hsa-miR-6510-5p],percent viability,MCF10A [1],27.9%
same,5+ nucleoli phenotype percent effect,MCF10A [2],-10.7%
same,one-nucleolus phenotype percent effect,MCF10A [3],20.8%
CAGCAGUCCCUCCCCCUG [hsa-miR-4274],percent viability,MCF10A [1],34.1%
same,5+ nucleoli phenotype percent effect,MCF10A [2],7.99%
same,one-nucleolus phenotype percent effect,MCF10A [3],6.47%
CAGCAGUGCGCAGGGCUG [hsa-miR-4519],percent viability,MCF10A [1],27.2%
same,5+ nucleoli phenotype percent effect,MCF10A [2],8.89%
same,one-nucleolus phenotype percent effect,MCF10A [3],8.95%
CAGCCACAACUACCCUGCCACU [hsa-miR-449b-3p],percent viability,MCF10A [1],71.9%
same,5+ nucleoli phenotype percent effect,MCF10A [2],1.67%
same,one-nucleolus phenotype percent effect,MCF10A [3],-5.19%
CAGCCAGCCCCUGCUCACCCCU [hsa-miR-6858-3p],percent viability,MCF10A [1],30.6%
same,5+ nucleoli phenotype percent effect,MCF10A [2],3.04%
same,one-nucleolus phenotype percent effect,MCF10A [3],16.5%
CAGCCCCACAGCCUCAGA [hsa-miR-4323],percent viability,MCF10A [1],39.3%
same,5+ nucleoli phenotype percent effect,MCF10A [2],-13.4%
same,one-nucleolus phenotype percent effect,MCF10A [3],2.83%
CAGCCCGGAUCCCAGCCCACUU [hsa-miR-3940-3p],percent viability,MCF10A [1],33.5%
same,5+ nucleoli phenotype percent effect,MCF10A [2],-8.21%
same,one-nucleolus phenotype percent effect,MCF10A [3],2.08%
CAGCCCUCCUCCCGCACCCAAA [hsa-miR-4687-5p],percent viability,MCF10A [1],80.6%
same,5+ nucleoli phenotype percent effect,MCF10A [2],-6.45%
same,one-nucleolus phenotype percent effect,MCF10A [3],-10.4%
CAGCCGCCGCCUGUCUCCACAG [hsa-miR-6746-3p],percent viability,MCF10A [1],36.2%
same,5+ nucleoli phenotype percent effect,MCF10A [2],7.39%
same,one-nucleolus phenotype percent effect,MCF10A [3],-1.13%
CAGCCUGACAGGAACAG [hsa-miR-4293],percent viability,MCF10A [1],33.8%
same,5+ nucleoli phenotype percent effect,MCF10A [2],4.42%
same,one-nucleolus phenotype percent effect,MCF10A [3],-6.3%
CAGCGGAGCCUGGAGAGAAGG [hsa-miR-7846-3p],percent viability,MCF10A [1],41.6%
same,5+ nucleoli phenotype percent effect,MCF10A [2],-18.4%
same,one-nucleolus phenotype percent effect,MCF10A [3],11.9%
CAGGAAGGAGACAGGCAGUUCA [hsa-miR-6876-5p],percent viability,MCF10A [1],21.8%
same,5+ nucleoli phenotype percent effect,MCF10A [2],-24.5%
same,one-nucleolus phenotype percent effect,MCF10A [3],10.4%
CAGGAAGGAUUUAGGGACAGGC [hsa-miR-4476],percent viability,MCF10A [1],23.3%
same,5+ nucleoli phenotype percent effect,MCF10A [2],-8.98%
same,one-nucleolus phenotype percent effect,MCF10A [3],14%
CAGGACUUGACGGCUGCAACU [hsa-miR-8083],percent viability,MCF10A [1],71%
same,5+ nucleoli phenotype percent effect,MCF10A [2],22.5%
same,one-nucleolus phenotype percent effect,MCF10A [3],-1.33%
CAGGAGGCAGUGGGCGAGCAGG [hsa-miR-4695-5p],percent viability,MCF10A [1],54.7%
same,5+ nucleoli phenotype percent effect,MCF10A [2],14.2%
same,one-nucleolus phenotype percent effect,MCF10A [3],-5.49%
CAGGAGUGGGGGGUGGGACGU [hsa-miR-4433b-3p],percent viability,MCF10A [1],65.1%
same,5+ nucleoli phenotype percent effect,MCF10A [2],3.45%
same,one-nucleolus phenotype percent effect,MCF10A [3],-5.4%
CAGGAUCCACAGAGCUAGUCCA [hsa-miR-4661-3p],percent viability,MCF10A [1],31.4%
same,5+ nucleoli phenotype percent effect,MCF10A [2],-16%
same,one-nucleolus phenotype percent effect,MCF10A [3],7.03%
CAGGAUGUGGUCAAGUGUUGUU [hsa-miR-1265],percent viability,MCF10A [1],123%
same,5+ nucleoli phenotype percent effect,MCF10A [2],67.6%
same,one-nucleolus phenotype percent effect,MCF10A [3],-25.1%
CAGGCACGGGAGCUCAGGUGAG [hsa-miR-3622a-5p],percent viability,MCF10A [1],27.1%
same,5+ nucleoli phenotype percent effect,MCF10A [2],-21.7%
same,one-nucleolus phenotype percent effect,MCF10A [3],42.3%
CAGGCAGAAGUGGGGCUGACAGG [hsa-miR-6511a-5p],percent viability,MCF10A [1],69.3%
same,5+ nucleoli phenotype percent effect,MCF10A [2],3.66%
same,one-nucleolus phenotype percent effect,MCF10A [3],6.88%
CAGGCAGGGAGGUGGGACCAUG [hsa-miR-6808-5p],percent viability,MCF10A [1],21.7%
same,5+ nucleoli phenotype percent effect,MCF10A [2],-14.6%
same,one-nucleolus phenotype percent effect,MCF10A [3],28.6%
CAGGCAGGUGUAGGGUGGAGC [hsa-miR-6893-5p],percent viability,MCF10A [1],31.2%
same,5+ nucleoli phenotype percent effect,MCF10A [2],-6.16%
same,one-nucleolus phenotype percent effect,MCF10A [3],-3.82%
CAGGCAGUGACUGUUCAGACGUC [hsa-miR-2682-5p],percent viability,MCF10A [1],12.3%
same,5+ nucleoli phenotype percent effect,MCF10A [2],-23.5%
same,one-nucleolus phenotype percent effect,MCF10A [3],51.4%
CAGGCCAUAUUGUGCUGCCUCA [hsa-miR-15a-3p],percent viability,MCF10A [1],29.6%
same,5+ nucleoli phenotype percent effect,MCF10A [2],-27.1%
same,one-nucleolus phenotype percent effect,MCF10A [3],23%
CAGGCGUCUGUCUACGUGGCUU [hsa-miR-3186-5p],percent viability,MCF10A [1],23.1%
same,5+ nucleoli phenotype percent effect,MCF10A [2],-8.59%
same,one-nucleolus phenotype percent effect,MCF10A [3],27.8%
CAGGGAAAUGGGAAGAACUAGA [hsa-miR-5584-5p],percent viability,MCF10A [1],53.3%
same,5+ nucleoli phenotype percent effect,MCF10A [2],34.8%
same,one-nucleolus phenotype percent effect,MCF10A [3],-19.1%
CAGGGAACAGCUGGGUGAGCUGCU [hsa-miR-6750-5p],percent viability,MCF10A [1],60.6%
same,5+ nucleoli phenotype percent effect,MCF10A [2],27.2%
same,one-nucleolus phenotype percent effect,MCF10A [3],-6.66%
CAGGGAACCAGUUGGGGCUU [hsa-miR-6822-5p],percent viability,MCF10A [1],20.6%
same,5+ nucleoli phenotype percent effect,MCF10A [2],-8.39%
same,one-nucleolus phenotype percent effect,MCF10A [3],20.9%
